Test: protease stability score; higher = more stable; yeast display proteolysis, trypsin and chymotrypsin;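 further: relative to predicted unfolded state with 0 unfolded-like and 1 meaning tenfold more protease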

Sequence | protease stability score
SEEDELAKRILETLVRLLLTGNEELRHELADPNMRTEVDGVDLWGMHNDVHFWREIRLKELRIRHIEVQGDKSHSITDLDVEIDGKRIRVETKIRVVVVNGKIHRLHVRID | 1.51
SEEDELAKYVIRLWVEEFRTGDEESMFRLLDPHVLVQQGDKEYHGRERWEDFIRKLGLQNVRVEVHRVTIQGEFIHVDGIIEIGDKRTRYILYFEKFNGRWINKELRIK | 1.48
SEEDELAMEFMREQDRNQETGDWRRLSELADPNTRVEVNGREIHGMELWIKLLINKLREHGMEVRLHVERVEFYDGVADLDLRLYIHINGKDIHFHTQIIILKINGKWILKYIIIR | 1.25
SEEDELAREVSRIFTEASRTGDEERLIRLIDPHAKIQIGDKHFIGREDMEEWTRRLVERVDHLEVFIEDSRLIGNKLDVKGLFIEDYGDKRTVLEVRWILVKINGRWSIHSLHFK | 1.23
SEEDELDERLLKIMRHAFETGDEEIFMRLVDPHTRTEFNGQEVHGREHLHRWLKEILRTLGVKYVERKDIRAWDGRIHLEFEMHVNGRTLKLTVVVIFINGKLHEYSERIE | 1.61
SEEDELLREVFELWVEIVRTGDESRLKKLLDPHVRLIYNGRRYHGWEEVVRFYREWRIKSMSIHSIETQGDKAHANSETDIEYNGKRERSDIRIHMIVINGRIHHIEIREH | 2.39
SEEDELMEEWRRLFIHSFLTGNEDELHRLIDPNARFIINGVNLHGWKALETKLRELGAKHIEVRERHEHRQGNKLELHVHIIIHQGDKDLREDVRIENEKVNGRWVVRTIEEK | 1.07
SEEDELNHRISHLLTRMRRTGDEDTWHRLADPNMRLEINGVISHGREEALRILSEVDDILGIDRFSVHLDRYTWDGNYIHNDMTFEINGRDLRVHVDSLVINGRMHHERVRVE | -0.516
SEEDELTRELVELWLHVFHTGDEEIMYKLADPNARVDVLIDGKRLDLVGREEIRRFLHEWHREAGFKHFDLHDIHFQGEKVHIDGREVYGDKFFRVIIHIHIVNGRIKSTKIEIR | 1.67
SEEDELYRHIAEHLLHLLHTGNEEILDHLLDPHVKLEINIGDKRDEFIGRHSLREWLSRFKNVKLHVHDDKVINGVNHVDGTLDINGRRTHIEIHLHVYNGKVRRLQFNIH | 1.62
SEEDEMAEEMMRWFLEILETGNEELFNHYADPNVIDIVGDKRVHGMDRFSELHHIFLRHWRIHRRRENTIETYNGRAHIDGEIEGKVNGREKNIRVEIKLNVVNGVIKKVEVTYN | 0.379
SEEDEMIEELMRTIIRLFHTGDWEKKAKLMDPNTRSVIGDKHAHGREEIVRLFLEYWRELGIDHISIHDVKLQGDKVIVNGKLRVGEKTIDVRIHYVVVNGRLKSERFEEE | 0.327
SEEDEMSKRFLDDLLHNLRTGDFDRLKNELDPHAKLVVDGQELHGMELASKRDLEMRVNHLEIRHVEIQGEWIHLKGEMDGEVNGKRNIHEVHVLLFKINGRWYVREVWIR | 1.41
SEEDEMVRYVFELYAIAIETGDEDTLRNMFDPNAKIKFDGVDIHGRENIKRILREWRSSVHHWQIREKEIYGDKISLNVFQDLRFTIDGQFRRITTEVKVEIIKINGKWFFTHLEYI | 0.995
SEEDEQSKKILHIFIEILKTGDFETLEHMLDPNAKLDIDGRDLHGRELFLSMWEEFVRQYKNLRIIFRDYRLYGDYVIIHGQLRINGKTHDLRFHIVNINGRLKHLKIEHE | 1.46
SEEDERTYKVAKDWHEALQTGNEEIMERLLDPHVRIDVVVDGKKSHKHGMEVVSETLRRIREHLRMKWEIHRVDAQGDKLFVDGRYHIEVGDKKEHYIMHVLMIVIDGRLHSLTIRNE | 1.1
SEEDEVSERLAREYLHIWKTGDEDRLAKLLDPHTRFIYVIGDKELELIGRDKFAEFLRHLWEELGVNHFDVHDFKVYGEKVQLDTTEEYGDKNFRMHIDIVVIDGKVKFIRIKER | 1.33
SEEDEVTEKLVRLMIHAHHTGDEDLLKTLADPNVRLTIDYNGVKLTSHGREEFVRLLREWKRQIRIEDRKTTESHVYGNFAINNHVELGEFDGRRDRFEVRLHFVVFNGRVKEEKIKFD | 1.45
SEEDEVYEEALKITERLERTGNEEDLRTYADPHAKLRFIVDGKTIEIHGREDFVHEVVRYWKRFKNLTVRIERVEFQGDKLHLIGRLHIDGREVIIHMLSVKFNGRWFVENLHIEFV | 1.41
SEEDHDRELWISLLKKEAETGDERQVRENLDPNVQLDVGDKTFHGREIVLDHIHEEWKRLGLDRIKLFVDSIRIQGDKVRLDGSLDVNGKEIRVNIFLRKINGRWHIEFIHID | 0.666
SEEDHEHKVLTELSRKDWRTGNEHDLERLMDPNVRVEVDGREHHGWESAHELAKHFHRFFKNATLEIRHEEIQGEYLHIEMIIRVGDKVFDVHFIARKINGRWVLTEFSVH | 0.261
SEEDHELRIASEIMIKTTRTGDERLIKELFDPNTQIDFDGQELHGWKFVRRLDEEMRMHRSETKSYERYGDKIVIDIEVDVEFNGVRTRIRVTIIARKVNGRWLNEVMIIH | 1.14
SEEDHFMKHLVDHWAKIEQTGDEHALHELLDPDARVSIKIGDKEHIVHGREYLIELWRQLGFKVIKIHDHTVFNGVVKLHGHWHFDGREVHVEQDLIIINGRVKTVLMRVK | 1.72
SEEDHHADEFRRIMYEIFETGDEKKFEDLFDPNVRWEQGDKHTHGMETATRDMLDLERRLGVDHIKYKDIRFELVDGRMIVYIIGTIYINGRPRHLHIEIIVSKINGRWFVENVRMKVE | 2.14
SEEDHHTERIVEEFIEAERTGDEDHLLELIDPHVRVDVNGVELHGREELYKFWRDWLTKFKNARIEIRHVNNQGDKSTVLVLRRINGVDLETHVKWVFVNGKLKSITIRLN | 1.49

Sequence | protease stability score
SEEDHIMEELARIFWKLMTTGDFDTLEHLMDPHTRLEVNGRIFVGREASEELWRFYKNVRTEIEDVKAQGDKNHIKGHQKFNGREKTVHIHLTIVDGRLKSMSIKEH | 2.23
SEEDHLVDLMLKFLIESLKTGDEKTLRKLVDPNDKVVFNGRELHGRRALEYWLERFDHAHRFHIEDFTVQGDYMIVRVKLDGHVDGVRMETTIHLILVKYDGRWFVKMTIFN | 1.26
SEEDHRAKHIFHLFLHWFLTGDWEIFEHYADPRMRTLVNGKNFHGWEETVKFLDHIFKELRVHHIHVDHLEVQGDKYHFEVRVDREYNGRREITIMYIHFLIFNGKVKSILIIIH | 1.08
SEEDKATEKFLRELSEWHRTGDEEHFVRNLDPHVRVDIDGVELHGREEVERHLRKRWEKLGVDRFDSELRFKHIHVQGDKIEIHIRIILDINGVHRNVDVEIIALKVNGRWLIQSYHIR | 2.24
SEEDKEFEDLIKFWIHLLETGDFDTLRDLADPHVRVTIDGRDLHGREILLTFWEKVKNIKLDLKSIRVINGVVIMHGDTNFDGKRSHVELHIKKINGRWYITEFRIE | 2.25
SEEDKELEEFFRMYIHAARTGDWHTLTRLLDPNVLLMVNGRETHGMDKVKELLKRLGVDYINIEHVEVHRMDFQGDKLRMDTTEDGFVNGVRTHRSVHHILVKVDGRWYIESVHIK | 2.02
SEEDKEREEWLHLLKHSLETGDEQALSRMADPHVRLVVGDKELHGREDYERHWREFLERFPNVTTEVRLRRVEIYGDKIRIDTELRIHVGDKHHSLRVDLIMVKVDGRWFMKEIRIK | 1.21
SEEDKESEEAFKIAKELLETGDEDLHKHLFDPNARLVVGDKHHHGRELLVKFWSDFGIDHIEIHDIKLVNGRLDTDTTVRFNGRTLKMRIIIIKVNGKWEIKSMTVH | 0.667
SEEDKETKIALEISEKILETGDWEELSKNLDPDARFTFENRTHVGREEVSELLLKLIKEMGVNHVNIEDNDLQGDKIILIVEVRVGDKRVNLEIIAVKVNGRWRIHSIHERHE | 0.884
SEEDKEVKFFMERLNHLLLTGDEELIMEMLDPNARMTINGVDTHGRETLSKLWTDKLRHLRLKQIHIHDWRSINGRADNKGHERGFVGDKEDNWESELLFVFVNGRLKSISVHLR | 1.21
SEEDKHASKLADLVVEMWMTGDEEKLRHLADPDVKLHIEFNGVNRNHHGRDVMIEVMQRIREEIRIHDIKIHNWHTINGRWHIDSIVDGKFNGRRHETRTEVILEVIDGRIKVISFIFQ | 1.07
SEEDKHHETLARLIIEALTTGDEESLMHLMDPNARIQIGDKDNHGWRSLHIHHRELGIDHKEIRVREVRFVNGKIHIDSQVHFHFNGVTFDVRTHIILVVINGKLTKMWVIIG | 0.363
SEEDKHLLHLMHLFLHWFDTGDEEQFWHYADPHVRMSVNGVHLHGRETVMRQISRTLKEWRVDDRRIHDSHTVNGVVHQDGRVDGEFNGKRDTREYYLIIVIFNGRIHSVEIHIK | 1.46
SEEDKHLRKMAQDILEWLFTGNWKDFFDNLDPNYRVEWNGKERIGRDLTRRMLETIRREMRLHDIKIHHFTAIDGVIHIDGSEYIHVDGVTTEVKTHIHIVIFNGRIKRIEFHDH | 1.48
SEEDKHTEKLVRELWHAFETGDEDFILDMADPDVKFDFNGRKNVGREEFSRIWEDIFRRFKNIQLELTSITFQGHKVHTKGRTRINGKHHELIVHVVIVNGRLESLTIIIN | 1.49
SEEDKIALEILEMTKKLWDTGDEELMVDLVDPHVKVDWDGRERHGREAVEFFFRSIIEKVKNLTIRLTDFRVINGRIEIDSTLKFNGKTLEVRIISTKIDGQWYIESISFR | 1.38
SEEDKIVHEMMERLLKNWQTGNWEEIEKLFDPNAKLLVDGVELHGREEMSRHWEEKLNQIDHLRIRIRDYRYFDGRLRVEGEEIHYVNGKDITREVEIRLQVINGVVESIEFHRR | 1.42
SEEDKKVEEAIKYLYSFLKTGDEHEVEDMIDPHVRIDVNGKNVHGWEEAFRWTVEHMKKLGVERFEVEIKDVHKQGNYVRVLGHSRFNGKEYEIEIILIKVNGRWIIKSHRIH | 1.64
SEEDKLAREIFEETIRILLTGDEEKLEELLDPRVRVHIHIGDKRIDLHGREEMSKWLHEIRIEHFHIDDLKVQGDKLHADTHEVVRIGDKRIETRTEWELVVVNGRLKELHIRVK | 1.74
SEEDKLIKDAFTEIHTWIKTGNEEYLERLVDPHVKIIINGRELHGMEFLHEELKRFDHLHLRDHHLESFDIQGNKIVLEGTNDIEIKWNGVRIRTELEIHFFVEKVNGKWIIREFVIV | 1.26
SEEDKLMRDIERLVLEWLETGDEDALKKMLDPHVRVEFNGVERIGMDELARLLKHLRFDHIHIRNSRVINGVIHIDGHIDGTINGRRVRHDLEVRIIIVNGRFKEIILIDR | 1.21
SEEDKLSEELARRWIHLFETGDEETILHLADPHMKYILIINGRNEIHHGMKMMSEELKRIKGARFEIKRIEVQGDKVHLDVRIRIDGVEIDSEIDLKIVDGRLRELKVTIK | 2.07
SEEDKMVEDWLREWIELHLTGDFEQWESLFDPNTRSRAHVGDKRFESHGREQVVEVRHEIKREMRITDIDDKHIRVFNGRADLIGFMRGDINGRHVRLEIHVILVIVNGKRKEEEVRIH | 0.155
SEEDKSFEIMFKLFKEASDTGDEKTLSELFDPDTRIDIGDKHLHGREEAVRMWRELRIHDIRVKSFDIIGNKIHLDTHVNGLVNGRLHRTDSKIILLKVNGQWRIESYHVD | 1.77
SEEDKTALEMFERLIHAWLTGDEDEMRRMADPHVKIDKEFENHEVQFHGREDFVRWVIEVRDRIDHLEIRNHSIRTWNGVVHVHTTLFLNYDGKLFILRTEFRLFVIDGRLREERFMLH | 0.282

From the NTF2 design screens of Basanta et al. (2020)
